Laboratory results reported in the supplement of paper PMC10567573.

B1: ZNF511 (parent)
chain: AAPFRFVARPVRFPREHQFFEDGD
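Also: lentivirally expressed fusions sorted by FACS into six bins by GFP to DsRed ratio, PSI derived from sequencing read proportions per bin multiplied by bin number.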

Variants of: B1
Assay: protein stability index of a GFP-peptide fusion (GPS, HEK-293T) (PSI 1-6); higher = more stable
Settings: c terminus: a fixed tail appended
For AAPFRFDARPVRFPREHQFFEDGD [V7D], the protein stability index was 3.73.
Variant AAPFRFCARPVRFPREHQFFEDGD [V7C] has a protein stability index of 2.65.
Variant AAQFRFVARPVRFPREHQFFEDGD [P3Q] has a protein stability index of 2.26.
For AAIFRFVARPVRFPREHQFFEDGD [P3I], the protein stability index was 1.34.
AACFRFVARPVRFPREHQFFEDGD [P3C] gave a protein stability index of 1.36.
Work on AALFRFVARPVRFPREHQFFEDGD [P3L] yielded a protein stability index of 1.93.
Variant AATFRFVARPVRFPREHQFFEDGD [P3T] has a protein stability index of 2.1.
With AAGFRFVARPVRFPREHQFFEDGD [P3G] the protein stability index was 1.66.
Work on AAFFRFVARPVRFPREHQFFEDGD [P3F] yielded a protein stability index of 1.53.
AAAFRFVARPVRFPREHQFFEDGD [P3A] gave a protein stability index of 2.37.
Variant AADFRFVARPVRFPREHQFFEDGD [P3D] has a protein stability index of 1.06.
With AAKFRFVARPVRFPREHQFFEDGD [P3K] the protein stability index was 1.81.
For AANFRFVARPVRFPREHQFFEDGD [P3N], the protein stability index was 2.04.
With AAVFRFVARPVRFPREHQFFEDGD [P3V] the protein stability index was 1.53.
With AAYFRFVARPVRFPREHQFFEDGD [P3Y] the protein stability index was 2.47.
In the case of AASFRFVARPVRFPREHQFFEDGD [P3S], the protein stability index is reported as 2.76.
For AAHFRFVARPVRFPREHQFFEDGD [P3H], the protein stability index was 2.59.
For AARFRFVARPVRFPREHQFFEDGD [P3R], the protein stability index was 2.65.
AAMFRFVARPVRFPREHQFFEDGD [P3M] gave a protein stability index of 1.62.
AAEFRFVARPVRFPREHQFFEDGD [P3E] showed a protein stability index of 1.61.
AAWFRFVARPVRFPREHQFFEDGD [P3W] gave a protein stability index of 3.21.
In the case of EAPFRFVARPVRFPREHQFFEDGD [A1E], the protein stability index is reported as 2.04.
TAPFRFVARPVRFPREHQFFEDGD [A1T] showed a protein stability index of 1.22.
RAPFRFVARPVRFPREHQFFEDGD [A1R] gave a protein stability index of 1.93.
In the case of DAPFRFVARPVRFPREHQFFEDGD [A1D], the protein stability index is reported as 2.2.
In the case of SAPFRFVARPVRFPREHQFFEDGD [A1S], the protein stability index is reported as 2.07.
For HAPFRFVARPVRFPREHQFFEDGD [A1H], the protein stability index was 1.63.
For KAPFRFVARPVRFPREHQFFEDGD [A1K], the protein stability index was 2.02.
In the case of WAPFRFVARPVRFPREHQFFEDGD [A1W], the protein stability index is reported as 2.31.
With PAPFRFVARPVRFPREHQFFEDGD [A1P] the protein stability index was 2.29.
Variant MAPFRFVARPVRFPREHQFFEDGD [A1M] has a protein stability index of 3.08.
Variant QAPFRFVARPVRFPREHQFFEDGD [A1Q] has a protein stability index of 2.61.
In the case of IAPFRFVARPVRFPREHQFFEDGD [A1I], the protein stability index is reported as 1.82.
For CAPFRFVARPVRFPREHQFFEDGD [A1C], the protein stability index was 2.39.
With NAPFRFVARPVRFPREHQFFEDGD [A1N] the protein stability index was 2.51.
With FAPFRFVARPVRFPREHQFFEDGD [A1F] the protein stability index was 3.42.
With YAPFRFVARPVRFPREHQFFEDGD [A1Y] the protein stability index was 4.23.
Work on AAPFRWVARPVRFPREHQFFEDGD [F6W] yielded a protein stability index of 3.41.
With AAPFRGVARPVRFPREHQFFEDGD [F6G] the protein stability index was 4.43.
Variant AAPFRNVARPVRFPREHQFFEDGD [F6N] has a protein stability index of 4.55.
With AAPFRTVARPVRFPREHQFFEDGD [F6T] the protein stability index was 4.03.
Work on AAPFRYVARPVRFPREHQFFEDGD [F6Y] yielded a protein stability index of 1.69.
AAPFRVVARPVRFPREHQFFEDGD [F6V] showed a protein stability index of 3.89.
AAPFRDVARPVRFPREHQFFEDGD [F6D] showed a protein stability index of 4.19.
With AAPFRRVARPVRFPREHQFFEDGD [F6R] the protein stability index was 4.03.
AAPFRMVARPVRFPREHQFFEDGD [F6M] gave a protein stability index of 4.13.
For AAPFRAVARPVRFPREHQFFEDGD [F6A], the protein stability index was 4.3.
AAPFREVARPVRFPREHQFFEDGD [F6E] gave a protein stability index of 4.45.
With AAPFRPVARPVRFPREHQFFEDGD [F6P] the protein stability index was 4.83.
With AAPFRHVARPVRFPREHQFFEDGD [F6H] the protein stability index was 4.18.
In the case of AAPFRQVARPVRFPREHQFFEDGD [F6Q], the protein stability index is reported as 4.94.
Work on AAPFRSVARPVRFPREHQFFEDGD [F6S] yielded a protein stability index of 4.26.
With AAPFRCVARPVRFPREHQFFEDGD [F6C] the protein stability index was 2.81.
For AAPFRIVARPVRFPREHQFFEDGD [F6I], the protein stability index was 3.38.
With AAPFRLVARPVRFPREHQFFEDGD [F6L] the protein stability index was 3.47.
With AAPFRKVARPVRFPREHQFFEDGD [F6K] the protein stability index was 4.36.
AAPRRFVARPVRFPREHQFFEDGD [F4R] showed a protein stability index of 3.94.
AAPCRFVARPVRFPREHQFFEDGD [F4C] showed a protein stability index of 3.4.
AAPIRFVARPVRFPREHQFFEDGD [F4I] showed a protein stability index of 3.9.
For AAPQRFVARPVRFPREHQFFEDGD [F4Q], the protein stability index was 4.68.
Variant AAPERFVARPVRFPREHQFFEDGD [F4E] has a protein stability index of 4.46.
Work on AAPTRFVARPVRFPREHQFFEDGD [F4T] yielded a protein stability index of 4.36.
Work on AAPPRFVARPVRFPREHQFFEDGD [F4P] yielded a protein stability index of 4.84.
Work on AAPKRFVARPVRFPREHQFFEDGD [F4K] yielded a protein stability index of 4.41.
In the case of AAPMRFVARPVRFPREHQFFEDGD [F4M], the protein stability index is reported as 3.34.
AAPGRFVARPVRFPREHQFFEDGD [F4G] gave a protein stability index of 4.57.
In the case of AAPVRFVARPVRFPREHQFFEDGD [F4V], the protein stability index is reported as 4.24.
In the case of AAPSRFVARPVRFPREHQFFEDGD [F4S], the protein stability index is reported as 4.53.
For AAPWRFVARPVRFPREHQFFEDGD [F4W], the protein stability index was 2.48.
For AAPNRFVARPVRFPREHQFFEDGD [F4N], the protein stability index was 4.37.
For AAPARFVARPVRFPREHQFFEDGD [F4A], the protein stability index was 4.66.
AAPLRFVARPVRFPREHQFFEDGD [F4L] gave a protein stability index of 3.65.
Work on AAPYRFVARPVRFPREHQFFEDGD [F4Y] yielded a protein stability index of 3.68.
AAPDRFVARPVRFPREHQFFEDGD [F4D] gave a protein stability index of 4.77.
Variant AAPHRFVARPVRFPREHQFFEDGD [F4H] has a protein stability index of 4.58.
Work on AYPFRFVARPVRFPREHQFFEDGD [A2Y] yielded a protein stability index of 2.42.
ALPFRFVARPVRFPREHQFFEDGD [A2L] gave a protein stability index of 1.32.
Work on ADPFRFVARPVRFPREHQFFEDGD [A2D] yielded a protein stability index of 3.25.
AMPFRFVARPVRFPREHQFFEDGD [A2M] gave a protein stability index of 2.11.
APPFRFVARPVRFPREHQFFEDGD [A2P] showed a protein stability index of 2.32.
For ARPFRFVARPVRFPREHQFFEDGD [A2R], the protein stability index was 1.93.
Variant ASPFRFVARPVRFPREHQFFEDGD [A2S] has a protein stability index of 3.91.
For AQPFRFVARPVRFPREHQFFEDGD [A2Q], the protein stability index was 2.1.
For AHPFRFVARPVRFPREHQFFEDGD [A2H], the protein stability index was 2.48.
For AWPFRFVARPVRFPREHQFFEDGD [A2W], the protein stability index was 1.47.
Work on AIPFRFVARPVRFPREHQFFEDGD [A2I] yielded a protein stability index of 2.69.
ACPFRFVARPVRFPREHQFFEDGD [A2C] gave a protein stability index of 2.05.
ATPFRFVARPVRFPREHQFFEDGD [A2T] showed a protein stability index of 2.28.
With AFPFRFVARPVRFPREHQFFEDGD [A2F] the protein stability index was 1.85.
Variant AEPFRFVARPVRFPREHQFFEDGD [A2E] has a protein stability index of 2.8.
AKPFRFVARPVRFPREHQFFEDGD [A2K] showed a protein stability index of 2.01.
AVPFRFVARPVRFPREHQFFEDGD [A2V] gave a protein stability index of 1.53.
With ANPFRFVARPVRFPREHQFFEDGD [A2N] the protein stability index was 3.12.
In the case of AGPFRFVARPVRFPREHQFFEDGD [A2G], the protein stability index is reported as 2.36.
